{
  "source": "paper PMC8169993",
  "key": {"[1]": {"biological_target": "T1, RPA (heterotrimer RPA1/RPA2/RPA3) (Homo sapiens, UniProt P27694;P15927;P35244 1-616;1-270;1-121)", "T1 sequence (P27694 whole entry, chain 1 of 3)": "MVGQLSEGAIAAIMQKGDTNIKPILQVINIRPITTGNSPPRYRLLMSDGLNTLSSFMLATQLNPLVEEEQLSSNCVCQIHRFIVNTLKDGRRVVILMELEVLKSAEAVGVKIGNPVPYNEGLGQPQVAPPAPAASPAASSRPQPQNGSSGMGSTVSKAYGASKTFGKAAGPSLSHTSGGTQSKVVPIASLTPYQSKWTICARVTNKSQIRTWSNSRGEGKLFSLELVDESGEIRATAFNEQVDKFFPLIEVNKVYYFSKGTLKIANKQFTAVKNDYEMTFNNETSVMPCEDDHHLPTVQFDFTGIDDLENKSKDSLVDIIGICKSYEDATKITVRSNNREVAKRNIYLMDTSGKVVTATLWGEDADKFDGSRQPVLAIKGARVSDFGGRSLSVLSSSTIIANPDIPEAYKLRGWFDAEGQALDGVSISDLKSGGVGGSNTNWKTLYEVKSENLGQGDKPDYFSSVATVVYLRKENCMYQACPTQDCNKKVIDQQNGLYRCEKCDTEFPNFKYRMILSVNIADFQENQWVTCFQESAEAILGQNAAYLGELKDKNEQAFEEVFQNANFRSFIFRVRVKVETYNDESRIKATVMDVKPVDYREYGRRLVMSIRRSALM", "T1 sequence (P15927 whole entry, chain 2 of 3)": "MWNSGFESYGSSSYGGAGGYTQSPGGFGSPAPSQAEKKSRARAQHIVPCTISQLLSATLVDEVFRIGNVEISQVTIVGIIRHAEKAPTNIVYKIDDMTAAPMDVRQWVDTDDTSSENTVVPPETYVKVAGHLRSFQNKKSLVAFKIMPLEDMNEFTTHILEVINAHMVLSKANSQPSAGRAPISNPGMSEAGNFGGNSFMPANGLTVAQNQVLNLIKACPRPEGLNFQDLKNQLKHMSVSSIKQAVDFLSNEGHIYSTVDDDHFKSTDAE", "T1 sequence (P35244 whole entry, chain 3 of 3)": "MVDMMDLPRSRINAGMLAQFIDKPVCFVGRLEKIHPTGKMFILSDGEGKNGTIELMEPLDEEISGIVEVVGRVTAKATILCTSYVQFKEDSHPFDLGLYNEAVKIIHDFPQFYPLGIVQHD", "test": "fluorescence polarization"}, "[2]": {"biological_target": "T1, RPA (heterotrimer RPA1/RPA2/RPA3)", "test": "smFRET"}, "[3]": {"biological_target": "T1, RPA (heterotrimer RPA1/RPA2/RPA3)", "test": "smFRET", "remark": "listed apart in the source"}, "[4]": {"biological_target": "T1, RPA (heterotrimer RPA1/RPA2/RPA3)", "test": "smFRET", "remark": "listed apart in the source"}, "[5]": {"biological_target": "T1, RPA (heterotrimer RPA1/RPA2/RPA3)", "test": "gel filtration"}},
  "data": [
    {"binder": "3G4L1 (FP substrate) (mixed) DNA 1: GCGTGGCACCGGTAATAGGAAATAGGAGATTGGGTGGGTGGGTGGGTT DNA 2: TCCTATTTCCTATTACCGGTGCCACGC", "values": [
      {"measurement": "Kd", "setting": "[1]", "value": 8.6, "unit": "nM"}
    ]},
    {"binder": "3G4L4 (mixed) DNA 1: GCGTGGCACCGGTAATAGGAAATAGGAGATTGGGTTTTGGGTTTTGGGTTTTGGGTT DNA 2: TCCTATTTCCTATTACCGGTGCCACGC", "values": [
      {"measurement": "binding result", "setting": "[2]", "value": "binds"}
    ]},
    {"binder": "3G4L5 (mixed) DNA 1: GCGTGGCACCGGTAATAGGAAATAGGAGATTGGGTTTTTGGGTTTTTGGGTTTTTGGGTT DNA 2: TCCTATTTCCTATTACCGGTGCCACGC", "values": [
      {"measurement": "binding result", "setting": "[2]", "value": "binds"}
    ]},
    {"binder": "3G4L121* (mixed) DNA 1: GGGTGGGTAGGGTGGGATGTATGACAAGGAAGG DNA 2: CCTTCCTTGTCATAC", "values": [
      {"measurement": "binding result", "setting": "[3]", "value": "binds"}
    ]},
    {"binder": "3G4L3 (FP substrate) (mixed) DNA 1: GCGTGGCACCGGTAATAGGAAATAGGAGATTGGGTTAGGGTTAGGGTTAGGGTT DNA 2: TCCTATTTCCTATTACCGGTGCCACGC", "values": [
      {"measurement": "Kd", "setting": "[1]", "value": 6.3, "unit": "nM"}
    ]},
    {"binder": "27bp4nt (mixed) DNA 1: GCGTGGCACCGGTAATAGGAAATAGGAGATT DNA 2: TCCTATTTCCTATTACCGGTGCCACGC", "values": [
      {"measurement": "binding result", "setting": "[4]", "value": "binds"}
    ]},
    {"binder": "4G4 (mixed) DNA 1: GCGTGGCACCGGTAATAGGAAATAGGAGATTGGGGTGTGGGGACAGGGGTGTGGGGTT DNA 2: TCCTATTTCCTATTACCGGTGCCACGC", "values": [
      {"measurement": "binding result", "setting": "[5]", "value": "binds"}
    ]}
  ]
}
